Assay [1] has as its target T1, endogenous trk proto-oncogene product of rat PC12 cells (rat, UniProt P35739 33-799).
T1 construct: whole, on cells; also called PC12 endogenous trk proto-oncogene product; gp140^trk of PC12 cells
Put plainly: Scatchard analysis, [125I]-βNGF on PC12 cells at 4°C, high affinity receptors.

Assay [2] addresses T2, human trk proto-oncogene product gp140^trk (human, UniProt P04629 33-796).
T2 construct: whole, on cells; also called trk tyrosine protein kinase; trk receptor
Nature of the assay: Scatchard analysis, [125I]-βNGF on E25-48 cells at 4°C, high affinity receptors.

In assay [3] the target is T3, mouse trkB tyrosine protein kinase gp145^trkB (mouse, UniProt P15209 32-821).
T3 construct: whole, on cells; also called trkB receptor; trkB kinase
Nature of the assay: [125I]-βNGF binding to cells at 4°C.

Assay [4] deals with T2, human trk proto-oncogene product …. Nature of the assay: Scatchard analysis, [125I]-βNGF on E25-48 cells at 4°C, low affinity receptors.
Assay [5] has the same target. Put plainly: Scatchard analysis, [125I]-βNGF on E25-427 cells at 4°C, low affinity receptors.
The target is the same in assay [6]. Put plainly: cell-based or functional assay.
Assay [7] shares this target. Nature of the assay: Scatchard analysis, [125I]-βNGF on Sf9 cells infected with pAcS2, high affinity receptors.
Assay [8] has the same target. Put plainly: Scatchard analysis, [125I]-βNGF on Sf9 cells infected with pAcS2, low affinity receptors.
For assay [9] the target is unchanged. Nature of the assay: cell-based or functional assay. This is another data set of the same source.
Assay [10] addresses T3, mouse trkB tyrosine protein kinase …. Put plainly: cell-based or functional assay.
The target in assay [11] is T2, human trk proto-oncogene product …. Put plainly: Scatchard analysis, [125I]-βNGF on E25-427 cells at 4°C, high affinity receptors.
For assay [12], the target named is T4, rat low affinity NGF receptor gp80^LNGFR (rat, UniProt P07174 30-425).
T4 construct: whole, on cells
T4 sequence (looked up): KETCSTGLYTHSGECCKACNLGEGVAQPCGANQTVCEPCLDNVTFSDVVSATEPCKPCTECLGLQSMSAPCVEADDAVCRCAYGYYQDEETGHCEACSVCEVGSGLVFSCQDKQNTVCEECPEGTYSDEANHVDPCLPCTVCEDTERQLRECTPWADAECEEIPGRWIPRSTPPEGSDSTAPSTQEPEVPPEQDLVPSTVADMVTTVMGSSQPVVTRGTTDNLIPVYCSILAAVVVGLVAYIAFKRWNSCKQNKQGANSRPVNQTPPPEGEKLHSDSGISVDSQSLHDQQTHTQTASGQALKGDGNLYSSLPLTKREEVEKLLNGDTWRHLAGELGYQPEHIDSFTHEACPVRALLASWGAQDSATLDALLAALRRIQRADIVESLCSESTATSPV
Nature of the assay: Scatchard analysis, [125I]-βNGF on PC12 cells at 4°C, low affinity receptors.

Assay [13] has as its target mutant mouse trkB receptor gp145^trkB/S345 (mouse, UniProt P15209 32-821). Nature of the assay: cell-based or functional assay.
Assay [14] concerns the target T2, human trk proto-oncogene product …. Put plainly: competition with [125I]-NGF on E25-48 cells.
Assay [15] concerns the target T3, mouse trkB tyrosine protein kinase …. Nature of the assay: cell-based or functional assay. The source holds these as a separate data set.
For assay [16], the target named is T5, porcine trkC product gp145^trkC (porcine).
T5 construct: Expressed from pFL20 in NIH3T3 cells (R4-31); also called trkC receptor
Nature of the assay: Scatchard analysis, [125I]-NT-3 on R4-31 cells at 4°C, low affinity sites.

Assay [17] has as its target T2, human trk proto-oncogene product …. Put plainly: cell-based or functional assay. The source holds these as a separate data set.
Assay [18] deals with T5, porcine trkC product gp145^trkC. Put plainly: Scatchard analysis, [125I]-NT-3 on R4-31 cells at 4°C, high affinity sites.

The term Kd denotes the concentration at which binding is half-saturated.

T3 sequence (P15209 32-821): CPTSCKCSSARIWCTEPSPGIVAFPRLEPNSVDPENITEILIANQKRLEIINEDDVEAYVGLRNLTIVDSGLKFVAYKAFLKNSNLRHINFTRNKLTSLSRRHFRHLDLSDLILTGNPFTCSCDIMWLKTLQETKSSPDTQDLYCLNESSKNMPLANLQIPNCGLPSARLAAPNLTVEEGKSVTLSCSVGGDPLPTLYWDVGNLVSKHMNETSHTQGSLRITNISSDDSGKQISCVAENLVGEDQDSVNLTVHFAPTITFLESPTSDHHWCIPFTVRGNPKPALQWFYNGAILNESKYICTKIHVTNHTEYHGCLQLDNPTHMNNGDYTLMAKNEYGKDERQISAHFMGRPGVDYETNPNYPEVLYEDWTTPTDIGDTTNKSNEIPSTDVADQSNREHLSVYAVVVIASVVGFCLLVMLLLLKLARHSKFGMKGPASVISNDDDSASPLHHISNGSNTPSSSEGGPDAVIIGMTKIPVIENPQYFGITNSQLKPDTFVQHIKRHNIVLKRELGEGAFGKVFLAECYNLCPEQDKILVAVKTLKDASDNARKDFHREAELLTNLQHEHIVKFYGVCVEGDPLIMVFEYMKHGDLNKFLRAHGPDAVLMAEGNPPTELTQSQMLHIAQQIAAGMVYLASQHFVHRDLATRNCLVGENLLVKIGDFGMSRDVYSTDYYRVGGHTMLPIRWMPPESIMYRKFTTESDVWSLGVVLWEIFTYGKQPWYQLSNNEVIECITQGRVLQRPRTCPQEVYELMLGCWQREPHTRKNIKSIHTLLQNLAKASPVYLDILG
T2 sequence (P04629 33-796): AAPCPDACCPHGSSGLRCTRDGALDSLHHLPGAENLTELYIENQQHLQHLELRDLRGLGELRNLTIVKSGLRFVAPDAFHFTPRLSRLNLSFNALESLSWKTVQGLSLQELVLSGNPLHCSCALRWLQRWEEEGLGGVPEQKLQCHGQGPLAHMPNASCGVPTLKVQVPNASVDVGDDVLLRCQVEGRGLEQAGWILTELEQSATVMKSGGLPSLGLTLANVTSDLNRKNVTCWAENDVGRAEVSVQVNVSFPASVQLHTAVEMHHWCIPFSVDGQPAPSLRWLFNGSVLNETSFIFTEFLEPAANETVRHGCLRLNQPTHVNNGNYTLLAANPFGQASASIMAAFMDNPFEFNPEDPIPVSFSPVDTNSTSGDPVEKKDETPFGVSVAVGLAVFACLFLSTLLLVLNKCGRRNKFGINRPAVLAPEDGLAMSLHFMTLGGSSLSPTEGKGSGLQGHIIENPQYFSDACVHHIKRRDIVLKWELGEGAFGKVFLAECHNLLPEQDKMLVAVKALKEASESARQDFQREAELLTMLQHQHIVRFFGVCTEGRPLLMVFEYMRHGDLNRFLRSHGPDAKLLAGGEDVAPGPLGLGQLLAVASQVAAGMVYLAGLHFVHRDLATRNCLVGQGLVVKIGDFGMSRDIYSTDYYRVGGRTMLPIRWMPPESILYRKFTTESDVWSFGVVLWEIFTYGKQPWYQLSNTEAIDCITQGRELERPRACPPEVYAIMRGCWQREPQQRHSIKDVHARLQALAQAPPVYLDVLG
T1 sequence (P35739 33-799): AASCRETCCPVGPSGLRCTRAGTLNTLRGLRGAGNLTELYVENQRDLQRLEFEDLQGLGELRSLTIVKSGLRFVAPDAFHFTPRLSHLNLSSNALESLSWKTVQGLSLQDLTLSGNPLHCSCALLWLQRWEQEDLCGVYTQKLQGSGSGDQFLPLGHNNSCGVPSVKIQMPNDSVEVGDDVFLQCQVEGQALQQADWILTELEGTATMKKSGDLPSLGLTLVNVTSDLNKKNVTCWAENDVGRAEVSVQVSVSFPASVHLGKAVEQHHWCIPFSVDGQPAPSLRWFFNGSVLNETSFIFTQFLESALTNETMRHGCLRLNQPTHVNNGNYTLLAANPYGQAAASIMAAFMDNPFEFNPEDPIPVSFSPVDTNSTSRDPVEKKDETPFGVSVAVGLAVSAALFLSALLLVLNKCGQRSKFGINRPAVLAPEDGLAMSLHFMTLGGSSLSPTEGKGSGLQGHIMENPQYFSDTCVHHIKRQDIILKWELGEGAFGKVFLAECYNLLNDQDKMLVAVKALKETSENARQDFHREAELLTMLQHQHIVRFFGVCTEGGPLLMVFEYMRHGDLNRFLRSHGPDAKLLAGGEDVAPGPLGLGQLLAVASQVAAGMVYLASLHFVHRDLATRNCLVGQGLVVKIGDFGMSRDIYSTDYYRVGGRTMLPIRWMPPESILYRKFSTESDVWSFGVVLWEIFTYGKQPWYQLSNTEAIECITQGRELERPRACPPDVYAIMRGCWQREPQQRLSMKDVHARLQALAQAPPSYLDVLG
Chain of mutant mouse trkB receptor gp145^trkB/S345 (P15209 other isoform, or with tags, fused parts or gaps mutant): as the sequence (P15209 32-821) above, with C314S counted along it

B1: murine 2.5S NGF (βNGF) (ligand, UniProt P01139 122-241, looked up)
chain: SSTHPVFHMGEFSVCDSVSVWVGDKTTATDIKGKEVTVLAEVNINNSVFRQYFFETKCRASNPVESGCRGIDSKHWNSYCTTTHTFVKALTTDEKQAAWRFIRIDTACVCVLSRKATRRG
modifications: 125I label where used as tracer
notes: mature; The background says that βNGF exists as a 26,000 d homodimer; also called [125I]-labeled βNGF; [125I]-NGF
With B1, the Kd in [1] amounted to 0.3 nM; in [2], 0.09 nM; in assay [4], 2.4 nM; in [5], 7 nM; in [7] it was 0.42 nM; in [8] it was 13.7 nM. Besides, the Kd was 0.12 nM in assay [11] and 33.2 nM in [12]. The binding result in assay [3] was “no binding (tested: 1 nM)”. The “NGF stimulation of agar colonies, 10^3 E25-48 cells” value in assay [6] turned out to be 9 fold. In addition, the “NGF stimulation of agar colonies, 10^4 E25-48 cells” value in assay [6] worked out at 7 fold. Also, the “transforming activity of neurotrophic factor DNA in the presence of trk DNA” value (shortened to “transforming activity … of trk DNA”) in [9] is 20000 ffu per µg of DNA. Also, the “transforming activity of neurotrophic factor DNA in the presence of trkB DNA” value (from here on “transforming activity … of trkB DNA”) in assay [10] is < 1 ffu per µg of DNA.

B2: human brain-derived neurotrophic factor (BDNF) (ligand, UniProt P23560 129-247, looked up)
chain: HSDPARRGELSVCDSISEWVTAADKKTAVDMSGGTVTVLEKVPVSKGQLKQYFYETKCNPMGYTKEGCRGIDKRHWNSQCRTTQSYVRALTMDSKKRIGWRFIRIDTSCVCTLTIKRGR
modifications: 125I (Bolton-Hunter) where used as tracer in Example 5
notes: mature; also called [125I]-BDNF
As to B2, the “efficiency in mediating the response to BDNF, against wild type gp145^trkB” value in assay [13] was ~10 fold less efficient than wild type. Further, the binding result in assay [14] is given as “no binding (tested: 500 ng/ml)”. Moreover, the “transforming activity … of trk DNA” value in assay [9] is < 1 ffu per µg of DNA. The “transforming activity … of trkB DNA” value in assay [10] was 40000 ffu per µg of DNA.

B3: Xenopus laevis neurotrophin-4 (XNT-4) (ligand, UniProt P24727 114-236, looked up)
chain: ASGSDSVSLSRRGELSVCDSVNVWVTDKRTAVDDRGKIVTVMSEIQTLTGPLKQYFFETKCNPSGSTTRGCRGVDKKQWISECKAKQSYVRALTIDANKLVGWRWIRIDTACVCTLLSRTGRT
Take B3: the “transforming activity with gp145^trkB, against BDNF” value in assay [15] is 5 fold lower than BDNF.

B4: human neurotrophin-3 (NT-3) (ligand, UniProt P20783 139-257, looked up)
chain: YAEHKSHRGEYSVCDSESLWVTDKSSAIDIRGHQVTVLGEIKTGNSPVKQYFYETRCKEARPVKNGCRGIDDKHWNSQCKTSQTYVRALTSENNKLVGWRWIRIDTSCVCALSRKIGRT
modifications: 125I (Bolton-Hunter) where used as tracer
notes: mature; also called [125I]-labeled NT-3
Consider B4, for which the Kd in assay [16] was 4 nM; in assay [18] it was 0.026 nM. Moreover, the “efficiency in transformation assays with pDM69, against NGF” value in assay [17] is 200 fold less efficient than NGF. Further, the “transformation efficiency with pFRK44, against BDNF” value in [15] came out at 500 fold lower. Besides, the “transforming activity … of trk DNA” value in [9] is 300 ffu per µg of DNA. In addition, in [10], the “transforming activity … of trkB DNA” value is 100 ffu per µg of DNA.

Source of the values: EP0504914A2 (E.R. SQUIBB & SONS, INC., dated 1992).
